# From patent US20050232926A1, “Antibodies specific for cancer associated antigen SM5-1 and uses thereof” (Oncomax Acquisition Corp., priority 2003, published 2005)
# Columns and labels:
# [1] = biological target: SM5-1 antigen; assay: Affinity determination with BIAcore; assay type: binding, human
# [2] = tested on: QYC cells; assay: In vitro proliferation of QYC cells with chimeric and humanized antibody (PMS:MTS, seven days); assay type: cell-based, human; conditions: serial antibody dilutions, FIG. 6
# Method: The cell lines used in viability examination was QYC cells which were obtained from Shanghai International Joint Cancer Institute. The QYC cells was cultured in 25 cm^2 flask with RPMI-1640/DMEM (V:V=1:1, GIBCO) containing 10% FBS (GIBCO).
# The above cells were digested with 0.05% trypsin and in 0.02% EDTA, and cell number was counted and adjusted to 6×10^4/ml in RPMI-1640/DMEM culture medium containing 10% FCS.
# The assay was performed in 96-well plate. The anti-human SM5-1 humanized and chimeric antibody described above were diluted with RPMI-1640/DMEM containing 10% FCS. The antibody to be tested (20 mg/ml) was diluted to […] in serial dilution, with each dilution no more than 10-fold. The antibody were further diluted 1:2 serially with RPMI-1640/DMEM containing 10% FCS for fourteen serial concentrations in 96-well plate, leaving 100 μl/well. Cells (100 μl) were added into each well containing 200 μl various concentration of antibody or 200 μl of RPMI-1640/DMEM containing 10% FCS as control. In order to prevent edge effect of the plate, wells that were at the edge of the plate were not used for the assay but added 200 μl PBS. The plate was incubated at 37° C. with 7% CO2 for seven days.
# Color developing reagent PMS:MTS (1:20) (20 μl) was added into each well of the 96-well plate. The plate without the lid was then incubated for 3 h.
# The 96-well plate was read at OD490 nm. […]
# [3] = tested on: human hepatocellular carcinoma cell line QYC; assay: Complement-dependent cytotoxicity (CDC), LDH release; assay type: cell-based; conditions: 5% normal human sera, 3-4 h, FIG. 8
# Excerpt: Antigen recognized by anti-SM5-1 is highly expressed on the surface of human hepatocellular carcinoma cell line QYC. With human complement in the culture fluid, the target cells bound with chimeric antibodies will be lysed by so-called complement dependent cell mediated cytotoxicity (CDC). When there is an over dose of complement (provided by fresh normal human sera), in a certain range, the degree of lysis is related to antibody concentration. Degree of lysis can be determined by detecting lactate dehydrogenase (LDH) released by the lysed cells.
# Cell line for bioactivity determination is QYC, which is without any pathogen. […]
# QYC cells in the logarithmic growth stage were taken and counted. […]
# 50 ul supernatant was transferred from each well to corresponding wells in a second 96-well plate, and 50 ul well-mixed LDH test kit reagent was added into the well of the second plate. […] OD was measured with 490 nm as detecting light wave length, and 630 nm as reference wave length.
# The results were analyzed with specific analysis software Select2.2 to make auto analysis and calculate standard curve line: horizontal axis stands for the concentration of the standard product and samples, vertical axis stands for optical adsorption, recovery equation as 4-parameter equation, resulting in a “s” curve line. Half effective dosage (ED50) of the standard product and samples were calculated. […]
# [4] = tested on: human hepatocellular carcinoma cell line QYC; assay: Therapeutic effect in QYC-bearing nude mice; assay type: in vivo; conditions: 4 mg/kg/week tail vein, after 6 weeks, FIG. 9
# Method: Chimeric and humanized anti-SM5-1 monoclonal antibodies, and humanized and chimeric anti-CD3 antibodies were tested for their therapeutic effects in QYC bearing nude mice.
# Forty female nude mice were inoculated s.c with QYC. After seven weeks, tumor masses reached 0.5 cm in diameter. These mice were randomly divided into 5 groups: 8 mice for PBS group; 8 mice for non-related antibody, chimeric anti-human CD3 mAb, 4 mg/kg; 8 mice for humanized anti-human CD3 mAb, 4 mg/kg; 8 mice for anti-human SM5-1 chimeric mAb, 4 mg/kg; 8 mice for anti-human SM5-1 humanized mAb, 4 mg/kg.
# Four mAbs were diluted into final concentration 0.4 mg/ml with PBS. Mice were tail vein injected at 4 mg/kg/week through tail vein, with the control injected equal volume of PBS. According to body weight of nude mice, injection volume was about 250 ul for each nude mouse.
# After 6 weeks, size of the tumor mass was measured in each mouse and statistical analyzed. […] These antibodies may function via ADCC and/or CDC.
Kd [1],Molecule,in vitro proliferation of QYC cells [2],anti-neoplasm effect via CDC [3],size of the tumor mass [4]
3.78 nM,"chSM5-1: mouse-human chimeric antibody with mSM5-1 variable regions (SEQ ID NO:3, 4) and human constant regions (antibody, V domains shown, human constant regions; Mus Musculus) VH: EVQLQQSGPELVKPGASVKMSCKASGYTFTSYVMHWVKQKPGQGLDWIGYIVPYNDGTKYNEKFKGKATLTSDKSSSTAYMELSRLTSEDSAVYYCVYGSRYDWYLDVWGAGTTVTVSS VL: NIMMTQSPSSLAVSAGEKVTMSCKSSQSVLYSSNQKNYLAWYQQKPGQSPKLLIYWASTRESGVPDRFTGSGSGTDFTLTISSVQAEDLAVYYCHQYFSSYTFGGGTKLEIKR",significantly inhibited in vitro proliferation of QYC cells,induced the apoptosis and inhibited the growth of tumor cells through the CDC pathway,effective in controlling the size of the tumor mass
9.31 nM,"humanized anti-SM5-1 antibody (ReSM5-1) (antibody, V domains shown) VH: QVQLVQSGGGVVQPGRSLRLSCKASGYTFTSYVMHWVRQAPGKGLEWIGYIVPYNDGTKYNEKFKGRFTISSDKSKSTAFLQMDSLRPEDTAVYYCARGSRYDWYLDYWGQGTPVTVSS VL: NIMMTQSPSSLSASVGDRVTITCKSSQSVLYSSNQKNYLAWYQQTPGKAPKLLIYWASTRESGVPSRFSGSGSGTDYTFTISSLQPEDIATYYCHQYFSSYTFGQGTKLQITR",significantly inhibited in vitro proliferation of QYC cells,induced the apoptosis and inhibited the growth of tumor cells through the CDC pathway,effective in controlling the size of the tumor mass
